Assay results as given in patent US20220380442A1 (published 2022).
Where two headings read alike, the source gives them in different places.

How the values were obtained:
[1] = molecular target: T1, Sin Nombre virus (SNV) glycoproteins Gn and Gc displayed on the surface of Expi293F cells transfected with … (Sin Nombre virus); test: flow
[2] = molecular target: T1, Sin Nombre virus (SNV) glycoproteins Gn …; test: flow; remark: listed apart in the source

B1: SNV-27 (antibody, V domains shown)
VH: QVQLVQSGAEVKKPGASVRVSCKAYGYSFNDYFMHWVRQAPGQGLEWMGRVKPSTGGTRYAQKFQGRVTMTLDTSTSTAYVELSSLSSDDTAVYFCARKLGPLGDCSSSSCYSALDVWGQGTMVTVSS
VL: DIQMTQSPSTLSASVGDRVTITCRASESISNWLAWYQQKPGKAPKLLISKASSLESGVPSRFSGSGSGTEFTLTIGSLQPDDFATYYCQQYNTYSWTFGQGTKVDIK
B1 was tested, and the EC50 [1] was 11 ng/mL.

B2: SNV-24 (antibody, V domains shown)
VH: EVQLLESGGGLIQSGGSLRLSCVVSGIDFSNYAMTWVRHAPGKGLEWISTISGSGDTTNYADSAKGRFTISRDNSRNTLFVRINSLRAEDTAIYYCAKTMGPVSGQYAFDIWGQGTKVTVSS
VL: SYELTQPPSVSVSPGQTATITCSGDNLGNKFASWYQQKPGLSPVLVIYQDKKRPSGIPERFSGSNSGNTATLTISGTQAMDEADYFCQAWHSGSVFGGGTKLTVL
B2 was tested, and the EC50 [1] was 7.2 ng/mL.

B3: SNV-53 (antibody, V domains shown)
VH: EVQLVQSGAEVKTPGESLKISCKGSGYRFYTYWIAWVRQMPGKGLEWMGIIYPGDSDPRYSPSFQGQVTISADKSISTAYLQWSSLKASDTAMYYCVRVQGTMLDYWGQGTLVTVSS
VL: QSVLTQPPSVSGAPGQSVTISCSGSSSNIGAGYDVHWYQQLLGRAPKLLIHGNSNRPSGVPDRFSGSKSGTSGSLAITGLQSEDEADYYCQSYDISLSGWVFGGGTKLTVL
Work on B3 yielded an EC50 [1] of 3.5 ng/mL.

B4: SNV-21 (antibody, V domains shown)
VH: QVQLVESGGGVVQPGRALRLSCAASGFTFSSYGMHWVRQAPGKGLEWVAVVWNDGGNKYYADSVKGRFTISRDNSKNTLYLQMNSLRAEDTAVYFCARDGYYVSSGYHPLRYYYYYMDVWGKGTTVAVSS
VL: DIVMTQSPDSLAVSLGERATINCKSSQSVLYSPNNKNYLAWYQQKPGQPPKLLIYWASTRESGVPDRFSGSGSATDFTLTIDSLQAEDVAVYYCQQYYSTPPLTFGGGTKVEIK
Binder B4 has an EC50 [1] of 20 ng/mL.

B5: SNV-56 (antibody, V domains shown)
VH: EVQLVESGGRLVRPGGSLRLSCAASGFTFSHYNMNWVRQAPGKGLEWVSSINSRNGYTYYADSVKGRFTISRDNAKNSLYLQMNSLRPEDTAVYYCARDPPLYSGYDLGYYYYGMDVWGQGTTVTVSS
VL: DIQMTQSPSTLSAFVGDRVTITCRANQNISKWLAWYQQKPGKAPNLLIHKASSLESGVPSRFSGSGSGTEFTLTISSLQPDDFATYSCQQYNSYPWAFGQGTRVEIK
B5 gave an EC50 [1] of 66 ng/mL.

B6: SNV-57 (antibody, V domains shown)
VH: QVQLVESGGGVVQPGRSLRLSCAASGFTFSSYAMHWVRQAPGKGLEWVALISLDGFNTYYPDSVKGRFTISRDSSKNTLFLQLNSLRIEDTAVYYCVKDRGPTGSGSYGMDVWGQGTTVTVSS
VL: SYELTQPPSVSVSPGQTASITCSGDKLGNKFACWYQQKPGQSPVLVIHQDKKRPSGIPERFSGSNSGNTATLTISGTQAVDEADYYCQAWDSSNVVFGGGTKLTVL
B6 gave an EC50 [1] of 6 ng/mL.

B7: SNV-30 (antibody, V domains shown)
VH: QLQLQESGSRLVKSSETLSLTCAVSGGAITSGRNTWSWIRQPPGKGLEWIGFIYYSGSTYSNPITYSSPSLKSRVTISLDTSKNQFSLKLNSVTAADTAVYYCARAKPSNLNFYYYGMDVWGQGTTVTVSS
VL: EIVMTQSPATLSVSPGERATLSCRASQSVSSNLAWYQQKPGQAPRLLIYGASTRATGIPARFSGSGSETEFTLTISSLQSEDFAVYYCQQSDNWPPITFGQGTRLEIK
Binder B7 has an EC50 [1] of 5.5 ng/mL.

B8: SNV-36 (antibody, V domains shown)
VH: QVQLVESGGGVVQPGRSLRLSCAASGFRFSSYAMHWVRQAPGKGLEWVATIWFDGTNEYYGDSAKGRFTISRDNSMSTLYLQMNSLRVEDTAVYYCARPANGYSDYYYGMDVWGQGTTVTVSS
VL: QSALTQPASVSGSPGQSITISCTGTSSDVGTYNLVSWYQQHPGKAPKLMIFEVNKRPSGVSYRFSGSKSGNTASLTISGLQAEDEADYYCCSYADNRTPFLFGTGTKVTVLG
B8 gave an EC50 [1] of 10 ng/mL.

B9: SNV-67 (antibody, V domains shown)
VH: QVQLVQSGAEVKKPGASVRVSCKASGYTFTAYFMNWVRQAPGQGLEWMGRINPISGDTNFAQNFQGRVTMTRDTSITTVYMELNRLTSDDTAVYYCARVRSGYSYIDFWGQGTLVTVAS
VL: SYDLTQPPSVSVSPGQTARITCSGDALSNQYAYWYQQRPGQAPVVVIYKYSERPSGIPERFSGSSSGTTVTLTISGVQAEDEADYYCQSADRLGTYWVFGGGTKLTVL
For B9, the EC50 [1] was 15 ng/mL.

B10: SNV-45 (antibody, V domains shown)
VH: ELQLVESGGGLIRPGGSLRLSCTAAGFTFSNYNMNWVRQAPGKGLDWVSYISSSGGTTIYADSVKGRFTISRDNAKDSLYLQMNSLRDDDTAIYYCVRGRGQLATHFDYWGQGTLVTVSS
VL: ESVLTQFPDFQSVTPKEKVTITCRASQSIHINLHWYQQKPHQSPKLLIKYASQSIAGVPSRFSGSGSGTEFTLTINGLEAEDAATYYCHQSNSLPWTFGQGTKVEIK
B10 gave an EC50 [1] of 9.9 ng/mL.

B11: ANDV-54 (antibody, V domains shown)
VH: EVQLVESGGGVVQPGRSLRLSCAASGFTFSPYGMHWVRQAPGKGLEWVAVVWYDGNNKYYADSVKGRFTISRDNSKNTLYLQMNSLRAEDTAVYYCARENTPTYNSGYYFDYWGQGTLVTVSS
VL: QSALTQPASVSGSPGQSITISCTGTSSDVGSYDLVSWYQQHPGKAPKLIIYEGSKRPSGVSNRFSGSKSGNTASLTISGLQAEDEADYYCCSYAGSSTWVFGGGTKVTVL
In the case of B11, the EC50 [2] is reported as 3670 ng/mL.

B12: SNV-32 (antibody, V domains shown)
VH: QVQLVQSGAEVKKPGSSVKVSCRASGGTFRSYSISWVRQAPGQGLEWMGDIIPIFSTTNYAQKFQGRVTITADEATSTAYMELSSLRSDDTAVYYCARPSNLLNWFDPWGQGTLVTVSS
VL: EIVMTQSPATLSVSPGERATLSCRASQSVNSNLVWYQQKPGQAPRLLIYGASTRATGIPARISGSGSGTEFTLTISSLQSEDFAVYYCQQYDNRPQTFGQGTKVEIK
B12 gave an EC50 [1] of 14 ng/mL.

B13: ANDV-44 (antibody, V domains shown)
VH: QVQLVQSGAEVRKPGASVKVSCKASGYTFTSNGVSWVRQAPGQGLEWMGWIAGYDGYTNYTQKFQGRVTMTTDTSTTTVYMELRSLRFDDTAVYYCARDEGLHNWKFNAMDVWGQGTTVIVSS
VL: EIVLTQSPGTLSLSPGERATLSCRASQSVSSSYLAWYQQKPGQAPRLLMSETSRRATGIPDRFSGSVSGTDFILTINRVDPEDFAVYYCQQYSSPPWTFGQGTKVEIK
For B13, the EC50 [2] was 1090 ng/mL.

B14: SNV-65 (antibody, V domains shown)
VH: QVQLQESGPGLVKPSQTLSLTCTVSGGSISSGGYFWSWIRQHPGKGLEWIGYIYYSGSTYYNPSLKSRVTISIDTSKIQFSLKLTSVTAADTAVYYCARDVGGFDIWGQGTMVTVSS
VL: DIQMTQSPSSLSASIGDRVTITCQASQDINKYLNWYQQKPGKAPKVLIYDASNLETGVPSRFSGSGSGTDFTFTISSLQPEDVATYYCQQYENLPRTFGQGTKVEIK
B14 showed an EC50 [1] of 3.4 ng/mL.

B15: SNV-39 (antibody, V domains shown)
VH: QEQLEESGGGVVQPGRSLTLSCAASGFTFRSYDMHWVRQAPGKGLEWVALISYDGRNKHYGDSVKGRFTISRDNSKNTLYLHLSSLRAEDTSVYYCARGADNGLFTDSWGQGTLVIVSS
VL: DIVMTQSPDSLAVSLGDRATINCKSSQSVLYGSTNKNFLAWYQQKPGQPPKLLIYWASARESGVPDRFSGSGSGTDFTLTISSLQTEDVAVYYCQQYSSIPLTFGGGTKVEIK
Work on B15 yielded an EC50 [1] of 14 ng/mL.

B16: SNV-62 (antibody, V domains shown)
VH: QVLLVQSGAEVKKPGASVKVSCKASGYTFTSYFIHWVRQAPGQGLEWMGMINPISGNTNYAQKFQGRVTMTRDTSTRTVYMQLSSLTFEDTAVYSCVRWTTVPSSFDFWGQGTLVTVSS
VL: SYELTQPPSVSVSPGQTARITCSGDALPNQYVNWYQQKPGQAPVLMMFKDNQRPSGIPERFSGSRSGTTVTLSISGVQAEDEADYHCQSADRTATSVAFGGGTKLTVL
With B16 the EC50 [1] was 2.6 ng/mL.

B17: SNV-25 (antibody, V domains shown)
VH: QVQLQESGPGLVKPSGTLSLTCAVSGGSISSSNWWSWVRQPPGKGLEWIGEIYHSGSTNYNPSLKSRATISVDKSKNQFSLKLSSVTAADTAFYYCARARGEWLAHFDYWGQGTLVTVSS
VL: DIQMTQSPSTLSASVGDRVTITCRASQSISRWLAWYQQKPGKAPKLLIYKASSLESGVPSRFSGSGSGTEFTLTISSLQPDDFAIYYCQQYNTDKTFGQGTKVEIK
Work on B17 yielded an EC50 [1] of 7.2 ng/mL.

B18: SNV-68 (antibody, V domains shown)
VH: QVQLQESGPGLVKPSGTLSLTCLVSGGSIGSSHWWSWVRQSPGKGLEWFGEIHHTESTNYNPSLKSRVTITMDKSKNQFYLKLTSVTAADTAVYYCARAGATFAEPFSLWGQGTMVTVSP
VL: DIQMTQSPSTLSASVGDRVTITCRAGQSVTNWLAWYQQKPGKAPKLLIYKASILASGVPSRFSGSGSGTEFTLTISSVQPDDSAVYYCQQYKSHRTFGQGTKVEIK
Work on B18 yielded an EC50 [1] of 6.5 ng/mL.

B19: ANDV-12 (antibody, V domains shown)
VH: EVQLVESGGGLVQPGGSLRLSCAASGFAFSSYWMTWVRQAPGKGLEFVANIKYDASEKYYVDSVKGRFTISRDNGRNSFYLQMNSLRAEDTAVYYCAVPGPGYSFAYDYWGQGTQVTVSS
VL: DIQMTQSPSSLSASVGDRITITCRASQSVGTYLNWYQQKPGKAPKLLIYEASSLQSGVPSRFSGSGSGTDFTLTISRLQPEDFATYSCQQSDIPPWTFGQGTKVEIK
Binder B19 has an EC50 [2] of 16 ng/mL.

B20: SNV-66 (antibody, V domains shown)
VH: QVRLVESGGGVVQPGRSLRLSCAASGFTFRSYGMHWVRQAPGKGLEWVALISLDGSEKHYADSVKGRLTISRDNSKNMLYLQMNNLRVEDTAVYYCAKDRPYSWRDVLDYWGQGTLVTVSS
VL: DIQMTQSPSSLSASVGDRVTITCRASRDIHTSLNWYQHTPGKAPELLIYAASTLEMGVPSRFSGSGSGTDFTFTISSLQPEDIATYYCQQYDELPLTFGGGTKVEMK
B20 gave an EC50 [1] of 7.7 ng/mL.

B21: SNV-42 (antibody, V domains shown)
VH: EVQLVESGGGLVQPGGSLRLSCAASGFTFSTYEMNWVRQAPGKGLEWISYIRSSGSTVYYADSVKGRFTISRDNAKNLLYLQMNSLRAGDTAVYYCARIPGGYTGYFDYWGQGALVTVSS
VL: QSVLTQPPSVSGAPGQRVTISCTGSSSNIGAGYYVHWYQQLPGTVPKLLIYGNNNRPSGVPDRFSGSKSGTSASLAITGLQTEDEADYYCQSYDSSLSGWVFGGGTKLTVL
For B21, the EC50 [1] was 5.9 ng/mL.

B22: SNV-3 (antibody, V domains shown)
VH: QVQLQQSGPGLVKPSQTLSLTCAISGDSVSSNSAAWNWIRQSPSRGLEWLGRTYYRSKWYNDYAVSVKSRITINPDTSKNQFSLQMNSVTPEDTAVYYCARDRRKLEPPPFSYYYYGLDVWGQGTTVTVSS
VL: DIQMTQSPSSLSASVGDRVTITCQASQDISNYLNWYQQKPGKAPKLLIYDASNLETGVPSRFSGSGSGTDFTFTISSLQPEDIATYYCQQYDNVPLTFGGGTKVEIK
For B22, the EC50 [1] was 5.6 ng/mL.

B23: SNV-50 (antibody, V domains shown)
VH: EMQLLESGGGLIQPGESLRLSCAGSGFTFRNYAMSWVRQAPGKGLQWVSAISASGGITHYADSVKGRFTISRDNSKNTLFLQMNSLRAEDTAVYYCAKGEIMRDTGYHDDAFDVWGQGKMVTVSS
VL: DIQLTQSPSFLSASVGDRVTITCRASQGISSYLVWYQQKPGEAPKLLIYTASTLQSGVPSRFSGSGSGTEFTLTISSLQPEDFATYHCQQVESYPYSFGQGTKLEIK
B23 gave an EC50 [1] of 5.2 ng/mL.
